The values that follow come from PMC3244695 (2012).

This test has as its target T1, NgR1 (Mus musculus, UniProt Q99PI8).
T1 chain: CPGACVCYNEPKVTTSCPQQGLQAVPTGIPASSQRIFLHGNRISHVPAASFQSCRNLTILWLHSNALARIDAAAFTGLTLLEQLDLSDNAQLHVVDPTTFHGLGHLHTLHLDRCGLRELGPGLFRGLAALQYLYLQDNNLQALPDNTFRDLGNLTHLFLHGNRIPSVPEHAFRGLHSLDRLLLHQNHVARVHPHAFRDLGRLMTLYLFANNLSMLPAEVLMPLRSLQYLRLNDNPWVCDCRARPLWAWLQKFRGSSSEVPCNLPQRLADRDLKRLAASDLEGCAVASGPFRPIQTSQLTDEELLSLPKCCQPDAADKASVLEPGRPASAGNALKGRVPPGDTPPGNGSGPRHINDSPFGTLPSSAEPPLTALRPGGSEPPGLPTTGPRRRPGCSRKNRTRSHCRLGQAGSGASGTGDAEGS
The test can be described thus: AP-fusion cell-surface saturation binding.

B1: LOTUS (Crtac1B) 29-602 (antibody)
chain: SQRAEPMFTAVTNSVLPPDYDSNPTQLNYGVAVTDVDHDGDFEIVVAGYTGPNLVLKYNRAQNRLVNIAVDERSSPYYALRDRQGNAIGVTACDIDGDGREEIYFLNTNNAFSGVATYTDKLFKFRNNRWEDILSDDVNVARGVASLFAGRSVACVDRTGSGRYSIYIANYAYGDVGPDALIEMDPEASDLSRGILALRDVAAEAGVSKYTAGRGVSVGPILSSSASDIFCDNENGPNFLFHNQGNGTFVDTAASAGVDDPHQHGRGVALADFNRDGKVDIVYGNWNGPHRLYLQMSAHGKVRFRDIASPKFSTPSPVRTVIAADFDNDQELEVFFNNIAYRSSSANRLFRVIRREHGDPLIEELNPGDALEPEGRGTGGVVTDFDGDGMLDLILSHGESMAQPLSVFRGNQGFSNNWLRVVPRTRFGAFARGAKVVLYTKKSGAHLRIIDGGSGYLCEMEPVAHFGLGRDEASSVEVTWPDGKMVSRSVASEEMNSVLEILYPQDEDKLQNTAPLECGQGFSQQDNGHCMDTNECIQFPFVCPRDKPVCVNTYGSYRCRTNKRCNRGYEPNED
modifications: alkaline phosphatase fusion of LOTUS
For B1, the Kd was roughly 6.8 nM.

For orientation: Kd means the concentration at which binding is half-saturated. A low value points to higher affinity.
